Test results reported in publication PMC8452627.

Columns and labels:
human FcRn (human) = human FcRn (human) (UniProt P55899); assay: SPR; steady-state equilibrium binding assay on ProteOn; human FcRn at pH 6
human FcγRIIa (human) = human FcγRIIa (human) (UniProt P12318); assay: SPR; steady-state equilibrium binding assay on ProteOn; human Fcγ receptors
Chain of UniProt P12318 (P12318 34-317): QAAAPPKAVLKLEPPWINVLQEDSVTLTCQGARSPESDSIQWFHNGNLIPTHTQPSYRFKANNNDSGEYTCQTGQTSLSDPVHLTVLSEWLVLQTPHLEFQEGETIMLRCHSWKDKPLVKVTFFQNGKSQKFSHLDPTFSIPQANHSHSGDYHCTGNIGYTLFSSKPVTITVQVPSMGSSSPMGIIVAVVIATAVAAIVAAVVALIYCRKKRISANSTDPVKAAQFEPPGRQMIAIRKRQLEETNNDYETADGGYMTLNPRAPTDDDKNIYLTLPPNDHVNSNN

Chain of UniProt P55899 (P55899 24-365): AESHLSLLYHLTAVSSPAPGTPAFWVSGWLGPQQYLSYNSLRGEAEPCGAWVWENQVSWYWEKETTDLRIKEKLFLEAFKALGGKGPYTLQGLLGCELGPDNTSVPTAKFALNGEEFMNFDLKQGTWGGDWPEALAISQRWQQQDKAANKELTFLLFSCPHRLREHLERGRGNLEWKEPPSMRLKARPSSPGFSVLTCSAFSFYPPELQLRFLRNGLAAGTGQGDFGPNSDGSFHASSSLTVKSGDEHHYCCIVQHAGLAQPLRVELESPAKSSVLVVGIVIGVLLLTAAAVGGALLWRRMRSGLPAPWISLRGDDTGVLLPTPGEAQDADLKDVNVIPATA

- Kd (human FcRn (human)): 6.2 µM
- Kd (human FcγRIIa (human)): 1.4 µM
Substance: isotype control of human IgG4 S228P (antibody)
